Numbered stars: 1 amine (or outer) side, 2 acyl side, 3 side chain; on linkers, the order of the positions; unused ones are H or OH. Bridge positions count the residues as written; N and C are the ends. Ends that are not written are not given here. acetyl = acetyl (haloacetyl before ring closure) on the side-chain amine, O=C(C[*:1])[*:2]; COCH2 = acetyl group that carries the bridge
The substances below were run against T1, Recombinant Human FGFR2 alpha (IIIc) Fc Chimera Protein (Homo sapiens, UniProt P21802) (assay: ELISA binding affinity of enzymatically synthesized peptide to FGFR). Details: ELISA luminescence signal at 10 nmol/L peptide, SEQ ID NO: 47 at 10 nmol/L standardized to 1; enzyme synthesis product.
T1 construct: Fc (chimera); purchased R&D systems 712-FR-050
T1 sequence (P21802 with tags, fused parts or gaps limits assumed): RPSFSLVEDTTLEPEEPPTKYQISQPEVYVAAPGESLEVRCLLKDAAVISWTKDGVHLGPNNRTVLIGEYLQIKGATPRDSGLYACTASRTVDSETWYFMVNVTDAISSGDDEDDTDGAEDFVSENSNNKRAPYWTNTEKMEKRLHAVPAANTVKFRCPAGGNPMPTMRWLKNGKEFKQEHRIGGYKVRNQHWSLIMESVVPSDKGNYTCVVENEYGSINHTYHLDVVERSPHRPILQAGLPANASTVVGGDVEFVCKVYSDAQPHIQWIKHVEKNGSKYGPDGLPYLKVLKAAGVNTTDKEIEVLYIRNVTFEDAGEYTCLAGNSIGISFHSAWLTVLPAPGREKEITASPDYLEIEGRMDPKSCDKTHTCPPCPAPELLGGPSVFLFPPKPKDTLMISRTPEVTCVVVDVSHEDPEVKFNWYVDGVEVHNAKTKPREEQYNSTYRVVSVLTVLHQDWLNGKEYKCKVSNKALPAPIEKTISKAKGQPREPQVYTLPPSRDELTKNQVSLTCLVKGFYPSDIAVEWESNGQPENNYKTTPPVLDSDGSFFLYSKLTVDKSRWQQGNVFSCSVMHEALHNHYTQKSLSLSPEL
How it was run: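 FGFR2 alpha (IIIc) Fc chimera (5 ng/well) was immobilized, and Myc-tagged peptide was bound 3 h at room temperature, then detected with anti-Myc antibody (2 h) and chemiluminescent substrate. Signal was corrected against FGFR-free wells. Score A–D was the luminescence at 10 nmol/L peptide, normalized to cyclic peptide SEQ ID NO: 47.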
In the case of “135 (QCTYLAQYLVERYHLTK(COCH2)T; thioether 2-17 (inferred)) [compound 135]”, the “Evaluation result of binding affinity to FGFR” value (“Evaluation result” for short) is reported as “C (0.1 or more and less than 0.5)”.
With “187 (YCEENFLDPEQYQYFIYFK(COCH2)Y; thioether 2-19 (inferred)) [compound 187]” the “Evaluation result” value was “A (0.7 or more)”.
With “279 (YCEENYLDPEQYQYFVYFK(COCH2)Y; thioether 2-19) [compound 279]” the “Evaluation result” value was “A (0.7 or more)”.
With “193 (YCEENRLDPEQYQYFIYFK(COCH2)Y; thioether 2-19 (inferred)) [compound 193]” the “Evaluation result” value was “C (0.1 or more and less than 0.5)”.
In the case of “123 (QCQNFITEVQFTYFWHYK(COCH2)T; thioether 2-18 (inferred)) [compound 123]”, the “Evaluation result” value is reported as “A (0.7 or more)”.
“208 (YCEENYLLPEQYQYFIYFK(COCH2)Y; thioether 2-19 (inferred)) [compound 208]” was tested, and the “Evaluation result” value was “C (0.1 or more and less than 0.5)”.
“184 (YCEESYLDPEQYQYFIYFK(COCH2)Y; thioether 2-19 (inferred)) [compound 184]” was tested, and the “Evaluation result” value was “C (0.1 or more and less than 0.5)”.
For “205 (YCEENYRDPEQYQYFIYFK(COCH2)Y; thioether 2-19 (inferred)) [compound 205]”, the “Evaluation result” value was “A (0.7 or more)”.
For “271 (YCEENYLDPEQYQIFIYFK(COCH2)Y; thioether 2-19) [compound 271]”, the “Evaluation result” value was “C (0.1 or more and less than 0.5)”.
For “63 (KCPQNFINPVQWAYFQHYK(COCH2)N; thioether 2-19 (inferred)) [compound 63]”, the “Evaluation result” value was “A (0.7 or more)”.
“325 (YCEEAYLDPEQYQYFIYFK(COCH2)Y; thioether 2-19 (inferred)) [compound 325]” was tested, and the “Evaluation result” value was “C (0.1 or more and less than 0.5)”.
In the case of “327 (YCEENYADPEQYQYFIYFK(COCH2)Y; thioether 2-19 (inferred)) [compound 327]”, the “Evaluation result” value is reported as “C (0.1 or more and less than 0.5)”.
With “220 (YCEENYLHPEQYQYFIYFK(COCH2)Y; thioether 2-19 (inferred)) [compound 220]” the “Evaluation result” value was “A (0.7 or more)”.
In the case of “206 (YCEENYHDPEQYQYFIYFK(COCH2)Y; thioether 2-19 (inferred)) [compound 206]”, the “Evaluation result” value is reported as “A (0.7 or more)”.
In the case of “323 (YCAENYLDPEQYQYFIYFK(COCH2)Y; thioether 2-19 (inferred)) [compound 323]”, the “Evaluation result” value is reported as “A (0.7 or more)”.
In the case of “148 (ECEENYLDPEQYQYFIYFKY; Description of Artificial Sequence: Cyclic peptide) [compound 148]”, the “Evaluation result” value is reported as “A (0.7 or more)”.
With “263 (YCEENYLDPEQYWYFIYFK(COCH2)Y; thioether 2-19) [compound 263]” the “Evaluation result” value was “A (0.7 or more)”.
For “273 (YCEENYLDPEQYQNFIYFK(COCH2)Y; thioether 2-19) [compound 273]”, the “Evaluation result” value was “C (0.1 or more and less than 0.5)”.
For “354 (YCEENYLDPMQYQYFIYFK(COCH2)Y; thioether 2-19) [compound 354]”, the “Evaluation result” value was “A (0.7 or more)”.
“75 (VCPQNFINPVQWRYFQHYK(COCH2)N; thioether 2-19 (inferred)) [compound 75]” was tested, and the “Evaluation result” value was “A (0.7 or more)”.
With “34 (CRALLRGAPFHLAEC; disulfide 1-15) [compound 34]” the “Evaluation result” value was “D (less than 0.1)”.
“311 (YCEENYLDPEQYQYFIYFK(COCH2)V; thioether 2-19 (inferred)) [compound 311]” was tested, and the “Evaluation result” value was “A (0.7 or more)”.
With “94 (QCPQNFINPVQWRYFQHSK(COCH2)N; thioether 2-19 (inferred)) [compound 94]” the “Evaluation result” value was “C (0.1 or more and less than 0.5)”.
For “128 (PCVQNYFNDLQWIFLQHYK(COCH2)R; thioether 2-19 (inferred)) [compound 128]”, the “Evaluation result” value was “A (0.7 or more)”.
For “169 (YCEINYLDPEQYQYFIYFK(COCH2)Y; thioether 2-19 (inferred)) [compound 169]”, the “Evaluation result” value was “A (0.7 or more)”.
In the case of “154 (YCIENYLDPEQYQYFIYFK(COCH2)Y; thioether 2-19 (inferred)) [compound 154]”, the “Evaluation result” value is reported as “A (0.7 or more)”.
With “71 (GCPQNFINPVQWRYFQHYK(COCH2)N; thioether 2-19 (inferred)) [compound 71]” the “Evaluation result” value was “A (0.7 or more)”.
“364 (QCLQYLYQYLFK(COCH2)I; thioether 2-12) [compound 364]” was tested, and the “Evaluation result” value was “C (0.1 or more and less than 0.5)”.
For “100 (QCPQHFINPVQWRYFQHYK(COCH2)N; thioether 2-19 (inferred)) [compound 100]”, the “Evaluation result” value was “C (0.1 or more and less than 0.5)”.
For “350 (YCEENMLDPEQYQYFIYFK(COCH2)Y; thioether 2-19) [compound 350]”, the “Evaluation result” value was “A (0.7 or more)”.
“41 (LCGNYITPLQWKYFQTYK(COCH2)W; thioether 2-18 (inferred)) [compound 41]” was tested, and the “Evaluation result” value was “A (0.7 or more)”.
“36 (CRALLRGAPFHLAEK(COCH2); thioether 1-15) [compound 36]” was tested, and the “Evaluation result” value was “D (less than 0.1)”.
With “292 (YCEENYLDPEQYQYFIPFK(COCH2)Y; thioether 2-19) [compound 292]” the “Evaluation result” value was “C (0.1 or more and less than 0.5)”.
For “106 (QCPQNFINPVQHRYFQHYK(COCH2)N; thioether 2-19 (inferred)) [compound 106]”, the “Evaluation result” value was “A (0.7 or more)”.
With “43 (HCNANFVYQQQYLYLLQYK(COCH2)L; thioether 2-19 via acetyl) [compound 43]” the “Evaluation result” value was “B (0.5 or more and less than 0.7)”.
With “54 (KCAQNFINPVQWRYFQHYKN; Description of Artificial Sequence: Cyclic peptide) [compound 54]” the “Evaluation result” value was “A (0.7 or more)”.
“74 (ICPQNFINPVQWRYFQHYK(COCH2)N; thioether 2-19 (inferred)) [compound 74]” was tested, and the “Evaluation result” value was “A (0.7 or more)”.
For “40 (DCSGNFFSKEQFHYLELFK(COCH2)K; thioether 2-19 (inferred)) [compound 40]”, the “Evaluation result” value was “A (0.7 or more)”.
With “204 (YCEENYEDPEQYQYFIYFK(COCH2)Y; thioether 2-19 (inferred)) [compound 204]” the “Evaluation result” value was “C (0.1 or more and less than 0.5)”.
With “250 (YCEENYLDPHQYQYFIYFK(COCH2)Y; thioether 2-19 (inferred)) [compound 250]” the “Evaluation result” value was “A (0.7 or more)”.
In the case of “261 (YCEENYLDPEQYFYFIYFK(COCH2)Y; thioether 2-19) [compound 261]”, the “Evaluation result” value is reported as “B (0.5 or more and less than 0.7)”.
For “425 (GCGYTQLHYQHLFAWLHARK(COCH2)V; thioether 2-20 via acetyl) [compound 425]”, the “Evaluation result” value was “C (0.1 or more and less than 0.5)”.
In the case of “217 (YCEENYLTPEQYQYFIYFK(COCH2)Y; thioether 2-19 (inferred)) [compound 217]”, the “Evaluation result” value is reported as “A (0.7 or more)”.
For “285 (YCEENYLDPEQYQYFSYFK(COCH2)Y; thioether 2-19) [compound 285]”, the “Evaluation result” value was “A (0.7 or more)”.
In the case of “373 (QCYNYQYIYQYIYK(COCH2)I; thioether 2-14) [compound 373]”, the “Evaluation result” value is reported as “C (0.1 or more and less than 0.5)”.
For “210 (YCEENYLVPEQYQYFIYFK(COCH2)Y; thioether 2-19 (inferred)) [compound 210]”, the “Evaluation result” value was “C (0.1 or more and less than 0.5)”.
“197 (YCEENYFDPEQYQYFIYFK(COCH2)Y; thioether 2-19 (inferred)) [compound 197]” was tested, and the “Evaluation result” value was “A (0.7 or more)”.
“298 (YCEENYLDPEQYQYFINFK(COCH2)Y; thioether 2-19) [compound 298]” was tested, and the “Evaluation result” value was “A (0.7 or more)”.
In the case of “87 (QCPQNFINPVHWRYFQHYK(COCH2)N; thioether 2-19 (inferred)) [compound 87]”, the “Evaluation result” value is reported as “A (0.7 or more)”.
“110 (QCQTDHQQQLYFIYQYLQK(COCH2)I; thioether 2-19 (inferred)) [compound 110]” was tested, and the “Evaluation result” value was “C (0.1 or more and less than 0.5)”.
“145 (SCEENYLDPEQYQYFIYFKY; Description of Artificial Sequence: Cyclic peptide) [compound 145]” was tested, and the “Evaluation result” value was “A (0.7 or more)”.
“344 (YCEENYLDPEQYQYFKYFK(COCH2)Y; thioether 2-19) [compound 344]” was tested, and the “Evaluation result” value was “A (0.7 or more)”.
In the case of “286 (YCEENYLDPEQYQYFTYFK(COCH2)Y; thioether 2-19) [compound 286]”, the “Evaluation result” value is reported as “A (0.7 or more)”.
In the case of “90 (QCPQNFINPVQWRYRQHYK(COCH2)N; thioether 2-19 (inferred)) [compound 90]”, the “Evaluation result” value is reported as “C (0.1 or more and less than 0.5)”.
In the case of “255 (YCEENYLDPEQWQYFIYFK(COCH2)Y; thioether 2-19 (inferred)) [compound 255]”, the “Evaluation result” value is reported as “A (0.7 or more)”.
For “333 (YCEENYLDPEQYQYFIAFK(COCH2)Y; thioether 2-19 (inferred)) [compound 333]”, the “Evaluation result” value was “A (0.7 or more)”.
For “308 (YCEENYLDPEQYQYFIYFK(COCH2)G; thioether 2-19 (inferred)) [compound 308]”, the “Evaluation result” value was “A (0.7 or more)”.
With “51 (VCHSNFLSAVQYAYFYQYKH; Description of Artificial Sequence: Cyclic peptide) [compound 51]” the “Evaluation result” value was “A (0.7 or more)”.

— patent US20260008815A1, “CYCLIC PEPTIDE OR SALT THEREOF, AND USES THEREOF” (FUJIFILM Corporation, priority 2023, published 2026)
